Results from US20220332804A1 (CSL INNOVATION, published 2022).

Key:
Assay in all cases: SPR, antibody captured, C2 as analyte;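 also: biacore SPR at 37 °C, anti-C2 mAbs captured via goat anti-human IgG on CM5 chips, double-referenced sensorgrams fit to a 1:1 kinetic or steady-state model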
[1] = target: T1, human C2 F437A (human, UniProt P06681 21-752)
T1 sequence: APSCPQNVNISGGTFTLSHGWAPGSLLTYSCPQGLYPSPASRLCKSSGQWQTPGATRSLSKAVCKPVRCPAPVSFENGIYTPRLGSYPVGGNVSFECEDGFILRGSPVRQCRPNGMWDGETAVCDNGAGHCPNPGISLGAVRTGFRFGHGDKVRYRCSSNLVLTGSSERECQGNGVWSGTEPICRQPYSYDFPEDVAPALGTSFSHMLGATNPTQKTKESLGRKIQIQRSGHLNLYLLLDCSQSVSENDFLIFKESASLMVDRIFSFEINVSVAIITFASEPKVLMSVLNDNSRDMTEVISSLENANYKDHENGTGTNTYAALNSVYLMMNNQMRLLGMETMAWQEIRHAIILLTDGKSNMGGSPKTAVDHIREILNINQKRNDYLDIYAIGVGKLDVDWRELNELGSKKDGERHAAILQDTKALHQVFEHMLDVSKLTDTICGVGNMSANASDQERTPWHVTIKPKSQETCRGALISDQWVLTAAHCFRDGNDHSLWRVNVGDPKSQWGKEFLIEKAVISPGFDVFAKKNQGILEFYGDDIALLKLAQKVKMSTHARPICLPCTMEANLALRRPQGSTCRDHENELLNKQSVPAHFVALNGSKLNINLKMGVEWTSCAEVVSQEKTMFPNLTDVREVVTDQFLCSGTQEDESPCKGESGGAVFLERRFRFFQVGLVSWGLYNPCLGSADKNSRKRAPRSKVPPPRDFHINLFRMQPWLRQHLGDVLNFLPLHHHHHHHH

[2] = target: T2, human C2 D454A (human, UniProt P06681 21-752)
T2 sequence: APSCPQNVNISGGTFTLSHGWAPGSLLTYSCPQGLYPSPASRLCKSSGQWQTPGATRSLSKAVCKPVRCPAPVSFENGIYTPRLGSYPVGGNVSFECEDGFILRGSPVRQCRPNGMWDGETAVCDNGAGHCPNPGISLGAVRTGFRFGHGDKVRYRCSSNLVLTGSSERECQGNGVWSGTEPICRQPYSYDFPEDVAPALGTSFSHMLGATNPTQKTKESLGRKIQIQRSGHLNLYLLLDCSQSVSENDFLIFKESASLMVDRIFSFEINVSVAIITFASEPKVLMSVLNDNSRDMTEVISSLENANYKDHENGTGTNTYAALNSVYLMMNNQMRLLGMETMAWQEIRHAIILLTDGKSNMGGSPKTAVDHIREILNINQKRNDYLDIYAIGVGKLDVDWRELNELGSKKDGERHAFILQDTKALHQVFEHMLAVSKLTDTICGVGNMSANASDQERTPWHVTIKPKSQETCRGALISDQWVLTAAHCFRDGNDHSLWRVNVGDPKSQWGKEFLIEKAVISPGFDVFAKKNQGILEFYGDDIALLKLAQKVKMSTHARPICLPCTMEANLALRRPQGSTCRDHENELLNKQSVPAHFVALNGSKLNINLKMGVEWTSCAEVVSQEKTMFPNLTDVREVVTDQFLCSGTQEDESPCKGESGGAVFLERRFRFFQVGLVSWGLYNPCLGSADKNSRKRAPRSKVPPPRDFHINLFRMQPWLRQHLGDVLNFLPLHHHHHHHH

[3] = target: T3, human C2 R493A (human, UniProt P06681 21-752)
T3 sequence: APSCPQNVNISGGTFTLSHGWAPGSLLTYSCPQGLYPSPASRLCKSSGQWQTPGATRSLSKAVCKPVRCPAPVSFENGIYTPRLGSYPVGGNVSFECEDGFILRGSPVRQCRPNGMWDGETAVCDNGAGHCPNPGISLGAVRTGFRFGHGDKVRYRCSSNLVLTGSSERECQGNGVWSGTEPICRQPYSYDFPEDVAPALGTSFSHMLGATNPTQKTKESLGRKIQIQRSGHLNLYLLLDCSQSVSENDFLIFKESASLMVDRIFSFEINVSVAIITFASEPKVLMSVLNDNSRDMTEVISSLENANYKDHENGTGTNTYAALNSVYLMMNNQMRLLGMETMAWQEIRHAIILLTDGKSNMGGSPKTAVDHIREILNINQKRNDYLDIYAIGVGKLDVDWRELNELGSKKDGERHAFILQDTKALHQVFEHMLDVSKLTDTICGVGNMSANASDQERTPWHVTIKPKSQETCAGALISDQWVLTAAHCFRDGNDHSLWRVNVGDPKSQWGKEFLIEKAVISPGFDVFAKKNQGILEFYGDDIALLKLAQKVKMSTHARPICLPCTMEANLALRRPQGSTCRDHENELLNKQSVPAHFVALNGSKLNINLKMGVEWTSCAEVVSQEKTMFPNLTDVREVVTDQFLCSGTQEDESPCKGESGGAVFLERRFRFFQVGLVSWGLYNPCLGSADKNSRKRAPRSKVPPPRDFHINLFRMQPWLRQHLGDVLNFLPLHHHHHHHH

[4] = target: T4, human C2 D511A (human, UniProt P06681 21-752)
T4 sequence: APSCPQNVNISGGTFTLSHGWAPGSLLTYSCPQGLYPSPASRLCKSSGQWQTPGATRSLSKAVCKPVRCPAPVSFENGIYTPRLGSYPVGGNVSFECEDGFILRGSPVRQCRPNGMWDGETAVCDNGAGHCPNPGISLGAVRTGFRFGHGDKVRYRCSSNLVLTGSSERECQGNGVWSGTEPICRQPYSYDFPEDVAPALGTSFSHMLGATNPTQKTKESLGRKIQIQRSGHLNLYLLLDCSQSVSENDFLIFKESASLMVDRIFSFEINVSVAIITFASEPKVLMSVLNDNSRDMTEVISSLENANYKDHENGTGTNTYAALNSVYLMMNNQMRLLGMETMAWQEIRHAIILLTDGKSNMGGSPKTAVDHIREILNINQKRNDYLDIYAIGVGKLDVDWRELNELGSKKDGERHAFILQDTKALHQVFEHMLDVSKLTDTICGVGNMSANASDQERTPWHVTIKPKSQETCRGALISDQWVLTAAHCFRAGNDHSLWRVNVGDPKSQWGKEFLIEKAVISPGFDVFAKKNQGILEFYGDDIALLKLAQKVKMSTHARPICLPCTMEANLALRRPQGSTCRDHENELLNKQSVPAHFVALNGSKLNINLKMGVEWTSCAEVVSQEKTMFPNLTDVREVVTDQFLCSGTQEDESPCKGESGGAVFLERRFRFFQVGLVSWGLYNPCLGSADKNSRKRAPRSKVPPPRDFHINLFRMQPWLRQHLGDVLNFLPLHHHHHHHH

B1: RF16-226 (antibody, human IgG4 S228P, lambda)
heavy: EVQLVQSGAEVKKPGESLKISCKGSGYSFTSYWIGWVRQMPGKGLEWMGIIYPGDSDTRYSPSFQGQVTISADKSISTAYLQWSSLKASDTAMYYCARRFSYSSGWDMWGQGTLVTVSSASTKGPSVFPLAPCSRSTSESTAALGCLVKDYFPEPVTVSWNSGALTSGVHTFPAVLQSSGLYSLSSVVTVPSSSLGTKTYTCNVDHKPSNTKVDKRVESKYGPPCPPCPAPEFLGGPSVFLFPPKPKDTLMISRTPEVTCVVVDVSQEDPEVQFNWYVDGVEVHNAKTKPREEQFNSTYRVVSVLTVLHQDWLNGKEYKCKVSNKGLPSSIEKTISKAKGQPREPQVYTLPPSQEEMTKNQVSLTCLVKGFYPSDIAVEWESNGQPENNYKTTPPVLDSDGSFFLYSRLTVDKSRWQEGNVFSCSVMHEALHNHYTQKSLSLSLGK
light: SYELTQPPSVSVSPGQTARITCSGDALTSKYVAWYQQKSGLAPLLVIYEDTRRPSGIPAKFSGSSSGSVATLTISGAHGDDEADYYCYSTDASGHQRVFGGGTKLTVLSQPKAAPSVTLFPPSSEELQANKATLVCLISDFYPGAVTVAWKADGSPVKAGVETTKPSKQSNNKYAASSYLSLTPEQWKSHRSYSCQVTHEGSTVEKTVAPTECS
notes: pH-dependent anti-C2 antibody from a phage display library; also called WT
Kd [1]: 260 nM
Kd [2]: 247 nM
Kd [3]: 24.3 nM
Kd [4]: 31.2 nM
